Assay results reported in the supplement of paper PMC10065799, “High-throughput profiling of sequence recognition by tyrosine kinases and SH2 domains using bacterial peptide display” (eLife, 2023).

Legend:
[1] = test system: AncSZ; assay: phosphorylation enrichment, bacterial display (enrichment ratio); higher = better substrate or ligand; peptides without Tyr show the background
[2] = target: EPHB1 (UniProt P54762); assay: as above
[3] = target: EPHB2 (UniProt P29323); assay: as above
[4] = target: FGFR1 (UniProt P11362); assay: as above
FGFR1, sequence (P11362 whole entry, looked up): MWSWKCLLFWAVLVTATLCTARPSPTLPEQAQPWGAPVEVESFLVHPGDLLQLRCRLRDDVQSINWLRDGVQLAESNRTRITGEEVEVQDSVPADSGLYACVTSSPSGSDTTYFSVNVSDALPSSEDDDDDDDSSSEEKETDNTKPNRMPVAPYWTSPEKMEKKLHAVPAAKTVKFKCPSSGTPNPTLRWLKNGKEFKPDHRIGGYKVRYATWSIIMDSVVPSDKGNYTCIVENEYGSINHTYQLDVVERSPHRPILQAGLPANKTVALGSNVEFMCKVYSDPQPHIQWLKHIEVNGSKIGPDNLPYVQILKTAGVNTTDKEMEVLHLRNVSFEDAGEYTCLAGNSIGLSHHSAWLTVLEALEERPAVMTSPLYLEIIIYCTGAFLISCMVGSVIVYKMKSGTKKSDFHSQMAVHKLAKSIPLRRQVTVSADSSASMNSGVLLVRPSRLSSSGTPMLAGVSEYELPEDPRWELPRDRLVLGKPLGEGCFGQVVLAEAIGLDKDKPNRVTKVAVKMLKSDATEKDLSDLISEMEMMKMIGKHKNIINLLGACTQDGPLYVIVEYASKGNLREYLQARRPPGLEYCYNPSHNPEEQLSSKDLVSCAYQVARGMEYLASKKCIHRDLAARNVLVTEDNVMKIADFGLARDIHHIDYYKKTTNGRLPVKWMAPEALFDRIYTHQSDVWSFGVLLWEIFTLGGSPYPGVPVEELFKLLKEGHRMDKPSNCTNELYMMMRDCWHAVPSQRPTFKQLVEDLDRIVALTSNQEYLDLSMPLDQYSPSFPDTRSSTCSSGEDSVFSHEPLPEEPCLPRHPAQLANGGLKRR

[5] = target: FGFR3 (UniProt P22607); assay: as above
[6] = test system: Fer (mouse); assay: as above
[7] = target: Fes (UniProt P07332); assay: as above
[8] = target: Fyn (UniProt P06241); assay: as above
Fyn, sequence (P06241 whole entry, looked up): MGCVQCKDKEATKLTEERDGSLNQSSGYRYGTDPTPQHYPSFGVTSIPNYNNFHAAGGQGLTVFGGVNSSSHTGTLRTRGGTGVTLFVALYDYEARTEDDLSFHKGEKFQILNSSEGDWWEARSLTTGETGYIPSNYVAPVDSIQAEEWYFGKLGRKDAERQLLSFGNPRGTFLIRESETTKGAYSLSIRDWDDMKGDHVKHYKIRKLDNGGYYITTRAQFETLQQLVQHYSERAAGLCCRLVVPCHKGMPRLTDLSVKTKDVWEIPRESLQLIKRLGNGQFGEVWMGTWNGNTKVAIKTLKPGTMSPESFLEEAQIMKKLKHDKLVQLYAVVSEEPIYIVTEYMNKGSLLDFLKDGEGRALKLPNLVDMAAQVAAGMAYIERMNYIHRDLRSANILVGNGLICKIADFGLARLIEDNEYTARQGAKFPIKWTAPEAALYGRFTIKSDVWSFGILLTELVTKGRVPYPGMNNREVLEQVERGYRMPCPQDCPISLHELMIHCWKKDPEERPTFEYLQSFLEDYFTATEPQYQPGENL

[9] = target: Hck (UniProt P08631); assay: as above
Hck, sequence (P08631 whole entry, looked up): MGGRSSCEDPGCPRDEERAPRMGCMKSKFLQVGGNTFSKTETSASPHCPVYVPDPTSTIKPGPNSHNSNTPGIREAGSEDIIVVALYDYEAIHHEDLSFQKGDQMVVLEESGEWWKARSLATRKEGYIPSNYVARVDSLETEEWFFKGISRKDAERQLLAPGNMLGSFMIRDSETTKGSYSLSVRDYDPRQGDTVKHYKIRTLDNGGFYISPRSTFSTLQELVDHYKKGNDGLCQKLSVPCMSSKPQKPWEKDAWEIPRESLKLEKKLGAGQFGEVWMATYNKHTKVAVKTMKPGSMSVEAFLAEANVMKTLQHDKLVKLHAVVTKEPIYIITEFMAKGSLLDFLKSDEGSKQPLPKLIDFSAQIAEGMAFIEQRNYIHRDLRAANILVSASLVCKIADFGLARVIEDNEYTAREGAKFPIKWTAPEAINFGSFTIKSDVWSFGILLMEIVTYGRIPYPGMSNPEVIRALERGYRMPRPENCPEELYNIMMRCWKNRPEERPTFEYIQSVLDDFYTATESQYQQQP

[10] = target: Jak2 (UniProt O60674); assay: as above
[11] = target: MERTK (UniProt Q12866); assay: as above
MERTK, sequence (Q12866 whole entry, looked up): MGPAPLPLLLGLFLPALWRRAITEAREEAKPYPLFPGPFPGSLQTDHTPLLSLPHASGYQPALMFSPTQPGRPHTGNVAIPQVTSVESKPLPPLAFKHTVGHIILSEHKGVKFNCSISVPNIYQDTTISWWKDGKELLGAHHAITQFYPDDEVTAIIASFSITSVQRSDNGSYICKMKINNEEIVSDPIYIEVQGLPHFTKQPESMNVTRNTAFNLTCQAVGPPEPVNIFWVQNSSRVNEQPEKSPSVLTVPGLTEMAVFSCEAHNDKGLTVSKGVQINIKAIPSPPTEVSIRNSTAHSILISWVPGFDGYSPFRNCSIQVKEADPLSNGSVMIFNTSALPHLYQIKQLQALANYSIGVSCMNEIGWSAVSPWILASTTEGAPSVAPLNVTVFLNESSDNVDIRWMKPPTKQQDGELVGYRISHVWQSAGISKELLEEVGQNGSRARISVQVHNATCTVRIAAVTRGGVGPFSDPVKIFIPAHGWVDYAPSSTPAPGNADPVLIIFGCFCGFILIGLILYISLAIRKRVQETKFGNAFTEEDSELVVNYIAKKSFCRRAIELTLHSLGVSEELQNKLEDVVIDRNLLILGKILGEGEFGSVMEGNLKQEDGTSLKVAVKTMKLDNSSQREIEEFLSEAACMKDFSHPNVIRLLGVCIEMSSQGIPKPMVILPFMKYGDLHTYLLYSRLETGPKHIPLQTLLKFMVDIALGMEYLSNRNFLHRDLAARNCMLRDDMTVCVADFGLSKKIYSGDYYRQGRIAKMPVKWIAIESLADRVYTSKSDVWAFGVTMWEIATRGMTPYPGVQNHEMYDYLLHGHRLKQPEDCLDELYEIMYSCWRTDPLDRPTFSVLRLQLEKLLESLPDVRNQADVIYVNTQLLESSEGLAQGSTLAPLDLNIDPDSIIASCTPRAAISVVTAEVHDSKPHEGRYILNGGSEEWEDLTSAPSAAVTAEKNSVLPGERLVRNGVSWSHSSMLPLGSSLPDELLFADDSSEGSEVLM

[12] = test system: c-Abl (mouse); assay: as above
[13] = test system: c-Src; assay: as above
[14] = target: Grb2 SH2 (UniProt P62993); assay: SH2 binding enrichment of the phosphorylated peptide, bacterial display (enrichment ratio); higher = better substrate or ligand; peptides without Tyr show the background
[15] = target: SHP2-C SH2; assay: as above
[16] = target: c-Src SH2; assay: as above
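For SH2 binding enrichment of the phosphorylated peptide, bacterial display in this document: peptide library displayed on the E. coli surface as eCPX fusions, selected cells deep-sequenced, score is each peptide's frequency after selection divided by its frequency in the input.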
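For phosphorylation enrichment, bacterial display in this document: 11-residue human phosphosite peptides and single-mutation variants displayed on the E. coli surface, counted by deep sequencing, each peptide's frequency after selection divided by its frequency in the unselected input library; frequency after pTyr selection over input frequency; kinase dosed for 20-30% of maximal phosphorylation in three min.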

EPHB1, sequence (P54762 whole entry, looked up): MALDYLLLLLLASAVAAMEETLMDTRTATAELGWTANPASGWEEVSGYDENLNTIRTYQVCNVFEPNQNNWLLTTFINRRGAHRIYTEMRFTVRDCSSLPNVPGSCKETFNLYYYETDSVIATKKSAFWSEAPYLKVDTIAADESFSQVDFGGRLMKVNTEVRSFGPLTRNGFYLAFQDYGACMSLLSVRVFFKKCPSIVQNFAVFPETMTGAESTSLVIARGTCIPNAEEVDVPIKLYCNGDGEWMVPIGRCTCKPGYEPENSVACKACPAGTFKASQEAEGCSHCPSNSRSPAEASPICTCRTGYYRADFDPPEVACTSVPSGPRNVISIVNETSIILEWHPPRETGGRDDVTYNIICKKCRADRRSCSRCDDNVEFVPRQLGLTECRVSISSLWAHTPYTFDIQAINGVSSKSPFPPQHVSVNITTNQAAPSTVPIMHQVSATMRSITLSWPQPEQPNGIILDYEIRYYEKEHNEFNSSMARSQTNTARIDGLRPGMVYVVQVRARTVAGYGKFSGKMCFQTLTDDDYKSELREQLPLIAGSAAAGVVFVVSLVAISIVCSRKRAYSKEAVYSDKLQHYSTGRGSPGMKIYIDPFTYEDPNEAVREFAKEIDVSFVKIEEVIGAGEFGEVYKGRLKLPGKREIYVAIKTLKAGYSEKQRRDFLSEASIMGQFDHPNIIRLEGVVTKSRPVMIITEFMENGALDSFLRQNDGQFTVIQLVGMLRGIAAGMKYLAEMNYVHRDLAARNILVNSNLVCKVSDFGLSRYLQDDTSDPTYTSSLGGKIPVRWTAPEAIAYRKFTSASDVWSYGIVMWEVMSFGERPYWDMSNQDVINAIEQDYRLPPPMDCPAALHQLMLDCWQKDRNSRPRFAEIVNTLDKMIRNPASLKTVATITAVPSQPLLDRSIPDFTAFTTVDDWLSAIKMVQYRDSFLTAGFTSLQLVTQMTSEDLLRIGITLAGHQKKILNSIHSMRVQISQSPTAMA
EPHB2, sequence (P29323 whole entry, looked up): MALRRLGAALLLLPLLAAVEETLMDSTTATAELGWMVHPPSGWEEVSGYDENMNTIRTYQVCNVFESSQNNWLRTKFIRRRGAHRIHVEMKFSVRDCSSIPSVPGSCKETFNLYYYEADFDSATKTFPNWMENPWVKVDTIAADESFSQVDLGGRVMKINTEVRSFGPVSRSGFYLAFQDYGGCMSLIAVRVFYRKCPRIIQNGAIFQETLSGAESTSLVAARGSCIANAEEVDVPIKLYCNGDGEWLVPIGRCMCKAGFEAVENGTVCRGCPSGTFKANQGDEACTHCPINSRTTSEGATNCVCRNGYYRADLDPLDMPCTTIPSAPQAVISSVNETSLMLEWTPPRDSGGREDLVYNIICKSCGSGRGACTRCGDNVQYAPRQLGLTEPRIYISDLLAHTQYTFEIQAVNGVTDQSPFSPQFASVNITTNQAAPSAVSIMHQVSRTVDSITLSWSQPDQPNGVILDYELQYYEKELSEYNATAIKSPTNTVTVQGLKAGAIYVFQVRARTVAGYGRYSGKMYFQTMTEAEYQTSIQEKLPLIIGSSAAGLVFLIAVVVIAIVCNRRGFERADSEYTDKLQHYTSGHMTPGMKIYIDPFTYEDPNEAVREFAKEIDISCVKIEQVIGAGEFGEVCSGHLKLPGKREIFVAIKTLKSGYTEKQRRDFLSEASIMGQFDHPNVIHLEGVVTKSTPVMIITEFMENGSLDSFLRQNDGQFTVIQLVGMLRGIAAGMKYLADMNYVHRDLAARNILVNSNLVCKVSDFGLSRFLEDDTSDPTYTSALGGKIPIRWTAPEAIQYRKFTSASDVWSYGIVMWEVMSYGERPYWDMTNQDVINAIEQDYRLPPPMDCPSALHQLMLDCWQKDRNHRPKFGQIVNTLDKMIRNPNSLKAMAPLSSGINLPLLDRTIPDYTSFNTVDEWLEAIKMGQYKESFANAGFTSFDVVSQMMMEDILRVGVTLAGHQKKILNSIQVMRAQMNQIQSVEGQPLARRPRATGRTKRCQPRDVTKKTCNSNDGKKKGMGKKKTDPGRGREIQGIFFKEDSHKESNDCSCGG

Row | Sequence | SH2 binding enrichment [14] | SH2 binding enrichment [15] | SH2 binding enrichment [16] | phosphorylation enrichment [1] | phosphorylation enrichment [2] | phosphorylation enrichment [3] | phosphorylation enrichment [4] | phosphorylation enrichment [5] | phosphorylation enrichment [6] | phosphorylation enrichment [7] | phosphorylation enrichment [8] | phosphorylation enrichment [9] | phosphorylation enrichment [10] | phosphorylation enrichment [11] | phosphorylation enrichment [12] | phosphorylation enrichment [13]
1 | NAPNSYGRRLI [CDKN2A_Y44_P48L] | 0.897 | 0.32 | 0.332 | 0.627 | 0.372 | 0.454 | 0.446 | 0.509 | 0.475 | 0.616 | 0.413 | 0.504 | 0.531 | 0.442 | 0.48 | 0.449
2 | VHFLVYHHHHH [CACNA1H_Y519_H516Y_YF] | 1.21 | 0.755 | 0.791 | 0.88 | 0.555 | 0.661 | 0.437 | 0.834 | 0.493 | 1.11 | 0.527 | 0.416 | 1.11 | 0.388 | 0.863 | 0.453
3 | YGMQLYQKYMH [GRB14_Y347_N349K] | 0.824 | 0.64 | 0.548 | 0.844 | 1.15 | 2.42 | 0.572 | 0.581 | 2.09 | 0.694 | 1.31 | 2.08 | 0.561 | 1.92 | 0.648 | 2.29
4 | LICRRYLVMQR [IL3RA_Y328_V323L] | 0.695 | 0.675 | 0.414 | 2.5 | 0.827 | 1.72 | 0.926 | 0.834 | 0.956 | 2.01 | 0.564 | 0.729 | 2.35 | 1.01 | 1.22 | 1.01
5 | TRVMEYISRLD [CLTCL1_Y1043] | 1.03 | 0.931 | 0.655 | 0.762 | 0.35 | 0.449 | 0.344 | 0.44 | 0.353 | 0.694 | 0.381 | 0.511 | 0.637 | 0.325 | 0.565 | 0.358
6 | KSFDMYSGDVM [FAM3D_Y122_A118S] | 0.803 | 0.674 | 0.613 | 0.998 | 1.6 | 1.22 | 0.654 | 0.667 | 0.589 | 0.856 | 1.06 | 1.13 | 0.698 | 0.914 | 0.609 | 1.1
7 | GIMEEYQLPYY [BMPR1A_Y453_V450M] | 0.845 | 0.44 | 5.46 | 5.83 | 0.748 | 0.795 | 2.23 | 1.57 | 0.942 | 1.4 | 1.4 | 0.998 | 1.28 | 0.398 | 1.25 | 3.76
8 | TTKGSYSLSVR [HCK_Y180] | 0.876 | 0.664 | 0.51 | 0.674 | 0.448 | 0.43 | 0.558 | 0.582 | 0.388 | 0.727 | 0.461 | 0.433 | 1.04 | 0.455 | 0.624 | 0.568
9 | PSTYRYERGSR [INPPL1_Y663_P659S] | 0.814 | 0.492 | 0.495 | 0.718 | 0.663 | 0.511 | 0.641 | 0.588 | 0.474 | 0.59 | 0.721 | 0.661 | 0.475 | 0.561 | 0.446 | 0.546
10 | LAARFYNWVCF [FLT4_Y1231_S1235C_YF] | 1.04 | 0.982 | 1.02 | 1.87 | 1.33 | 1.03 | 1.65 | 2.11 | 2.79 | 2.8 | 0.849 | 0.967 | 2.59 | 1.17 | 1.39 | 1.21
11 | LPKEQYLFTKE [AFG3L2_Y614_YF] | 0.911 | 1.06 | 0.762 | 0.83 | 1.2 | 0.471 | 0.623 | 1.51 | 0.817 | 1.49 | 1.59 | 0.996 | 0.532 | 0.499 | 0.551 | 0.406
12 | SEDSEYFKAFE [CASQ2_Y178_YF] | 0.868 | 0.709 | 0.544 | 1.46 | 0.714 | 0.653 | 0.608 | 0.882 | 0.471 | 1.41 | 0.572 | 0.582 | 1.34 | 0.557 | 0.974 | 0.651
13 | GIVEDYRPPLF [ACVRL1_Y421_F425L_YF] | 0.801 | 0.671 | 0.349 | 0.841 | 0.442 | 0.418 | 0.434 | 0.722 | 0.406 | 0.904 | 0.458 | 0.343 | 0.626 | 0.377 | 0.511 | 0.373
14 | ILILKYPIEHG [ACTA1_Y71_T68I] | 2.07 | 1.72 | 1.58 | 1.07 | 0.612 | 0.479 | 0.525 | 0.807 | 0.694 | 1.29 | 0.39 | 0.488 | 1.11 | 0.424 | 0.818 | 0.491
15 | HTVVSYAEVRA [CLOCK_Y378] | 0.721 | 27.9 | 3.25 | 1.12 | 0.627 | 0.809 | 0.62 | 0.599 | 0.52 | 1.23 | 0.897 | 0.899 | 0.779 | 0.509 | 0.781 | 0.742
16 | ENAGFYFQVSA | 0.629 | 0.658 | 0.537 | 1.08 | 0.483 | 0.493 | 0.416 | 0.721 | 0.474 | 1.15 | 0.329 | 0.304 | 1.3 | 0.333 | 0.797 | 0.347
17 | CTTILYNFMCN [TP53_Y234_H233L_YF] | 2.3 | 2.2 | 1.79 | 0.96 | 0.584 | 0.622 | 0.601 | 0.806 | 0.87 | 1.22 | 1.03 | 0.979 | 0.957 | 1.68 | 0.7 | 2.16
18 | KVGNGYISAAE [CALM2_Y100_D96V] | 0.892 | 0.546 | 0.53 | 0.619 | 0.4 | 0.468 | 0.456 | 0.588 | 0.476 | 0.65 | 0.337 | 0.393 | 0.485 | 0.42 | 0.538 | 0.391
19 | INQGPYENRSV [ATP6V1B1_Y462] | 1.2 | 0.643 | 0.532 | 0.558 | 0.381 | 0.568 | 0.421 | 0.441 | 0.4 | 0.622 | 0.38 | 0.423 | 0.47 | 0.38 | 0.475 | 0.435
20 | GVSYIYTIDGS [DCX_Y105_R102S] | 0.794 | 16.3 | 0.726 | 1.11 | 0.618 | 0.498 | 0.494 | 0.711 | 0.412 | 1.08 | 5.77 | 2.71 | 0.944 | 1.28 | 0.663 | 4.85

Second part, led by results:

Row | SH2 binding enrichment [14] | SH2 binding enrichment [15] | SH2 binding enrichment [16] | Sequence | phosphorylation enrichment [1] | phosphorylation enrichment [2] | phosphorylation enrichment [3] | phosphorylation enrichment [4] | phosphorylation enrichment [5] | phosphorylation enrichment [6] | phosphorylation enrichment [7] | phosphorylation enrichment [8] | phosphorylation enrichment [9] | phosphorylation enrichment [10] | phosphorylation enrichment [11] | phosphorylation enrichment [12] | phosphorylation enrichment [13]
21 | 0.719 | 0.614 | 0.473 | KGSEGYLAATY [NF1_Y2503] | 0.654 | 0.372 | 0.365 | 0.377 | 0.494 | 0.457 | 0.723 | 0.46 | 0.46 | 0.627 | 0.355 | 0.471 | 0.484
22 | 0.985 | 0.747 | 0.637 | QLHEHYKIHKE [NSMAF_Y626] | 0.748 | 0.455 | 0.597 | 0.311 | 0.772 | 0.563 | 0.95 | 0.697 | 0.526 | 0.641 | 0.878 | 0.623 | 0.777
23 | 1.07 | 0.838 | 0.786 | TACNPYKPPGP | 0.605 | 0.733 | 0.417 | 0.354 | 0.437 | 0.449 | 0.717 | 0.469 | 0.384 | 0.521 | 0.393 | 1.14 | 0.46
24 | 0.9 | 0.538 | 0.714 | EEGNPYYSGAR [MCCC2_Y520_S523G] | 0.898 | 0.409 | 0.551 | 0.542 | 0.552 | 0.425 | 0.917 | 0.959 | 1.01 | 0.719 | 0.449 | 0.597 | 1.83
25 | 0.81 | 2.83 | 0.644 | GREEFYVHYVG [KAT8_Y90] | 1.16 | 0.583 | 0.67 | 0.711 | 1.02 | 0.428 | 1.16 | 0.518 | 0.563 | 1.02 | 0.422 | 0.788 | 0.486
26 | 0.975 | 0.875 | 0.742 | CNPLRYPVLMS [OR2T1_Y182] | 0.839 | 0.549 | 0.567 | 0.476 | 0.621 | 0.453 | 0.913 | 0.5 | 0.518 | 0.758 | 0.428 | 0.896 | 0.498
27 | 1.03 | 0.809 | 0.656 | MSRDVYSIDFF [NTRK2_Y702_T704I_YF] | 1.02 | 1.23 | 1.17 | 1.61 | 1.2 | 1.16 | 1.05 | 8.38 | 4.17 | 0.889 | 7.45 | 0.652 | 6.79
28 | 0.919 | 0.752 | 0.714 | SNPAFYVLEGV [INPPL1_Y987_N982S_YF] | 0.818 | 0.469 | 0.559 | 0.509 | 0.63 | 0.427 | 1.06 | 0.648 | 0.441 | 0.765 | 0.517 | 0.646 | 0.732
29 | 1.11 | 0.801 | 0.735 | RLNWIYYKDQT [RS1_Y165] | 1.53 | 0.985 | 0.712 | 0.643 | 0.98 | 0.844 | 2.66 | 0.687 | 0.947 | 1.78 | 0.672 | 0.676 | 0.616
30 | 0.758 | 0.548 | 0.58 | HFGCIYHGTLL [MET_Y1093_V1092I] | 1.4 | 0.714 | 0.951 | 0.984 | 0.931 | 0.716 | 1.46 | 1 | 0.949 | 1.38 | 0.527 | 1.34 | 4.15
31 | 1.75 | 4.45 | 9.21 | CTTIHYNYICN [TP53_Y234_M237I] | 0.864 | 0.513 | 0.505 | 0.587 | 0.654 | 0.654 | 0.91 | 0.457 | 0.521 | 0.682 | 0.518 | 0.519 | 0.532
32 | 0.909 | 0.699 | 0.542 | NPQKPYFIRLY [WAS_Y83_S82P] | 1.01 | 0.561 | 0.599 | 0.395 | 0.675 | 0.474 | 1.08 | 0.354 | 0.443 | 0.906 | 0.344 | 0.544 | 0.303
33 | 0.676 | 0.648 | 0.548 | DAVCYYRMENA [NPHS2_Y195_I192V] | 1.9 | 0.622 | 0.588 | 7.53 | 6.2 | 0.704 | 1.1 | 1.34 | 1.37 | 6.76 | 1.82 | 0.956 | 3.44
